According to PMC10066265, “Inhibitor-3 inhibits Protein Phosphatase 1 via a metal binding dynamic protein–protein interaction” (Nature Communications, 2023):
Numbering of substitutions follows the chain as printed. Numbers in names are those of the source. Where “and” joins values, the source holds several entries; their conditions need not be identical. Equal entries are not always repeated.

B1: I3_(27-68) (I3 PP1 interaction domain) (domain or fragment, human, UniProt O60927 27-68, looked up)
chain: SLTIKLRKRKPEKKVEWTSDTVDNEHMGRRSSKCCCIYEKPR
notes: PPP1R11), human, residues 27-68; also called WT I3_(27-68); source: E. coli BL21 (DE3), purified (Ni-NTA, TEV, heat 95 °C, SEC); not shown: His6, N-terminal, cleaved; MBP, N-terminal, cleaved
B2: SCS: I3_(27-68) C60S/C62S (domain or fragment, human, UniProt O60927 27-68, looked up)
chain: B1 chain with C34S, C36S
notes: PPP1R11), human, residues 27-68, C60S/C62S; also called I3_27-68_SCS; source: E. coli BL21 (DE3), purified (Ni-NTA, TEV cleavage, heat, SEC); not shown: His6, N-terminal, cleaved; MBP, N-terminal, cleaved
B3: CSS: I3_(27-68) C61S/C62S (domain or fragment, human, UniProt O60927 27-68, looked up)
chain: B1 chain with C35S, C36S
notes: PPP1R11), human, residues 27-68; source: E. coli BL21 (DE3), purified (Ni-NTA, TEV, heat 95 °C, SEC); not shown: His6, N-terminal, cleaved; MBP, N-terminal, cleaved
B4: CSS: I3_(27-68) C61S/C62S (domain or fragment, human, UniProt O60927 27-68, looked up)
chain: B1 chain with C35S, C36S
notes: PPP1R11), human, residues 27-68, C61S/C62S; also called I3_27-68_CSS; source: E. coli BL21 (DE3), purified (Ni-NTA, TEV cleavage, heat, SEC); not shown: His6, N-terminal, cleaved; MBP, N-terminal, cleaved
B5: SSC: I3_(27-68) C60S/C61S (domain or fragment, human, UniProt O60927 27-68, looked up)
chain: B1 chain with C34S, C35S
notes: PPP1R11), human, residues 27-68, C60S/C61S; also called I3_27-68_SSC; source: E. coli BL21 (DE3), purified (Ni-NTA, TEV cleavage, heat, SEC); not shown: His6, N-terminal, cleaved; MBP, N-terminal, cleaved
B6: CSC: I3_(27-68) C61S (domain or fragment, human, UniProt O60927 27-68, looked up)
chain: B1 chain with C35S
notes: as for B3
B7: CSC: I3_(27-68) C61S (domain or fragment, human, UniProt O60927 27-68, looked up)
chain: B1 chain with C35S
notes: PPP1R11), human, residues 27-68, C61S; source: E. coli BL21 (DE3), purified (Ni-NTA, TEV cleavage, heat, SEC); not shown: His6, N-terminal, cleaved; MBP, N-terminal, cleaved
B8: IY: I3_(27-68) I63A/Y64A (domain or fragment, human, UniProt O60927 27-68, looked up)
chain: B1 chain with I37A, Y38A
notes: PPP1R11), human, residues 27-68, I63A/Y64A; also called I3_(27-68) IY; source: E. coli BL21 (DE3), purified (Ni-NTA, TEV cleavage, heat, SEC); not shown: His6, N-terminal, cleaved; MBP, N-terminal, cleaved
B9: SSS: I3_(27-68) C60S/C61S/C62S (domain or fragment, human, UniProt O60927 27-68, looked up)
chain: B1 chain with C34S, C35S, C36S
notes: PPP1R11), human, residues 27-68; also called I3_(27-68)SSS; I3_(27-68) SSS; source: E. coli BL21 (DE3), purified (Ni-NTA, TEV, heat 95 °C, SEC); not shown: His6, N-terminal, cleaved; MBP, N-terminal, cleaved
B10: SCC: I3_(27-68) C60S (domain or fragment, human, UniProt O60927 27-68, looked up)
chain: B1 chain with C34S
notes: as for B3
B11: SSC: I3_(27-68) C60S/C61S (domain or fragment, human, UniProt O60927 27-68, looked up)
chain: B1 chain with C34S, C35S
notes: as for B3
B12: SSS: I3_(27-68) C60S/C61S/C62S (domain or fragment, human, UniProt O60927 27-68, looked up)
chain: B1 chain with C34S, C35S, C36S
notes: PPP1R11), human, residues 27-68, C60S/C61S/C62S; also called I3_27-68_60SSS62; I3_(27-68) SSS; source: E. coli BL21 (DE3), purified (Ni-NTA, TEV cleavage, heat, SEC); not shown: His6, N-terminal, cleaved; MBP, N-terminal, cleaved
B13: SCS: I3_(27-68) C60S/C62S (domain or fragment, human, UniProt O60927 27-68, looked up)
chain: B1 chain with C34S, C36S
notes: as for B3
B14: CCS: I3_(27-68) C62S (domain or fragment, human, UniProt O60927 27-68, looked up)
chain: B1 chain with C36S
notes: PPP1R11), human, residues 27-68, C62S; source: E. coli BL21 (DE3), purified (Ni-NTA, TEV cleavage, heat, SEC); not shown: His6, N-terminal, cleaved; MBP, N-terminal, cleaved
B15: CCS: I3_(27-68) C62S (domain or fragment, human, UniProt O60927 27-68, looked up)
chain: B1 chain with C36S
notes: as for B3
B16: IY: I3_(27-68) I63A/Y64A (domain or fragment, human, UniProt O60927 27-68, looked up)
chain: B1 chain with I37A, Y38A
notes: PPP1R11), human, residues 27-68; also called I3_(27-68) IY; source: E. coli BL21 (DE3), purified (Ni-NTA, TEV, heat 95 °C, SEC); not shown: His6, N-terminal, cleaved; MBP, N-terminal, cleaved
B17: CCCdeletion: I327-59 (Δ60-68) (domain or fragment, human, UniProt O60927 27-59, looked up)
chain: SLTIKLRKRKPEKKVEWTSDTVDNEHMGRRSSK
notes: also called I3 CCCdeletion; source: E. coli BL21 (DE3), purified (Ni-NTA, TEV cleavage, heat 95 °C, SEC); not shown: His6, N-terminal, cleaved; MBP, N-terminal, cleaved
B18: CCC_(deletion): I3_(27-59) (Δ60-68) (domain or fragment, human, UniProt O60927 27-59, looked up)
chain: B17 chain
notes: PPP1R11), human, residues 27-59; also called I3 CCC_(deletion) variant; I3_(27-68) CCC_(deletion); source: E. coli BL21 (DE3), purified (Ni-NTA, TEV, heat 95 °C, SEC); not shown: His6, N-terminal, cleaved; MBP, N-terminal, cleaved
B19: CCC_(deletion): I3_(27-59) (Δ60-68) (domain or fragment, human, UniProt O60927 27-59, looked up)
chain: B17 chain
notes: PPP1R11), human, residues 27-59; also called CCCdead: I327-59 (Δ60-62); I3 27-59 (CCC dead); source: E. coli BL21 (DE3), purified (Ni-NTA, TEV cleavage, heat, SEC); not shown: His6, N-terminal, cleaved; MBP, N-terminal, cleaved

Assays:
[1] = molecular target: PP1α7-330 (UniProt P62136)
Chain of PP1α7-330 (UniProt P62136) (P62136 7-330): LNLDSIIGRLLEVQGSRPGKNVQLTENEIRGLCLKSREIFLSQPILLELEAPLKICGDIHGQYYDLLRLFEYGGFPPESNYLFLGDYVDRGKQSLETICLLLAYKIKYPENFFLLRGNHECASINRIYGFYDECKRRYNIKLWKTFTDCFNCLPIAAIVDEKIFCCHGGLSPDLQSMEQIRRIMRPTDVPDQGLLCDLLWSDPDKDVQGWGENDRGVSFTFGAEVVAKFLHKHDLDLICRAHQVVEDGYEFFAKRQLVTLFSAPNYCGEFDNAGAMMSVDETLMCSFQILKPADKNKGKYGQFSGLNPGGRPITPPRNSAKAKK

[2] = molecular target: T1, His6-PP1α_(7-330) (UniProt P62136 7-330); test: cell-based or functional assay
T1 sequence (P62136 7-330): as above

[3] = molecular target: T2, His6-PP1α_(7-330) C273S (UniProt P62136 7-330, C273S); test: cell-based or functional assay
T2 sequence (P62136 7-330 C273S): as the sequence (P62136 7-330) above, with C267S counted along it

[4] = molecular target: T1, His6-PP1α_(7-330); test: SPR; His6-PP1 captured on a Ni-NTA sensorchip, I3_(27-68) injected; pH = 7.0 (Table 1); two state fit; details: both partners purified
[5] = molecular target: T1, His6-PP1α_(7-330); test: SPR; His6-PP1 captured on a Ni-NTA sensorchip, I3_(27-68) injected; pH = 6.5 (Table 1); two state fit; pH 6.5; details: both partners purified
[6] = molecular target: T1, His6-PP1α_(7-330); test: SPR; His6-PP1 captured on a Ni-NTA sensorchip, I3_(27-68) injected; pH = 7.5 (Table 1); two state fit; pH 7.5; details: both partners purified
[7] = molecular target: T1, His6-PP1α_(7-330); test: SPR; His6-PP1 captured on a Ni-NTA sensorchip (NiHC200M), I3 variants injected; 25 °C; 20 mM Tris pH 8.0, 500 mM NaCl, 1 mM MnCl2, 0.5 mM TCEP, 0.05% Tween-20; one-to-one one state or one-to-one two state model; details: both partners purified
[8] = molecular target: T2, His6-PP1α_(7-330) C273S; test: as above; details: both partners purified
[9] = molecular target: T3, His6-PP1α_(7-330) H66K (UniProt P62136 7-330, H66K); test: as above; details: both partners purified
T3 construct: Protein Phosphatase 1 alpha (PP1α), residues 7-330, H66K; also called PP1 H66K; PP1_(7-330) H66K; source: bacterial expression (E. coli) as previously described, purified (Ni-NTA, SEC)
T3 sequence (P62136 7-330 H66K): as the sequence (P62136 7-330) above, with H60K counted along it

[10] = molecular target: T4, His6-PP1α_(7-330) H248N (UniProt P62136 7-330, H248N); test: as above; details: both partners purified
T4 construct: Protein Phosphatase 1 alpha (PP1α), residues 7-330, H248N; also called PP1_(7-330) H248N; source: bacterial expression (E. coli) as previously described, purified (Ni-NTA, SEC)
T4 sequence (P62136 7-330 H248N): as the sequence (P62136 7-330) above, with H242N counted along it

[11] = molecular target: T5, PP1α_(7-330) (UniProt P62136 7-330); test: SPR; His6-PP1 captured on Ni-NTA chip (NiHC200M), I3 variants injected; 25 °C; 20 mM Tris pH 8.0, 500 mM NaCl, 1 mM MnCl2, 0.5 mM TCEP, 0.05% Tween-20; one-to-one one state or one-to-one two state model (TraceDrawer); details: both partners purified
T5 construct: Protein Phosphatase 1 alpha (PP1α), residues 7-330; His6-PP1 was captured on the Ni-NTA sensor chip as the SPR ligand; Mn2+ in all buffers; also called Protein Phosphatase 1; His6-PP1; source: E. coli, purified (Ni-NTA, SEC)
T5 sequence (P62136 7-330): as the sequence (P62136 7-330) above

[12] = molecular target: T1, His6-PP1α_(7-330); test: SPR; His6-PP1 captured on a Ni-NTA sensorchip (NiHC200M), I3 variants injected; 25 °C; 20 mM Tris pH 8.0, 500 mM NaCl, 1 mM MnCl2, 0.5 mM TCEP, 0.05% Tween-20; one-to-one one state or one-to-one two state model; details: both partners purified; remark: listed apart in the source
[13] = molecular target: T6, PP1α7-330 (UniProt P62136 7-330); test: SPR; His6-PP1 captured on a Ni-NTA sensor chip (NiHC200M), I3 variants injected; 25 °C; 20 mM Tris pH 8.0, 500 mM NaCl, 1 mM MnCl2, 0.5 mM TCEP, 0.05% Tween-20; one-to-one one-state or one-to-one two-state fit; details: both partners purified
T6 construct: Protein Phosphatase 1 alpha catalytic subunit, residues 7-330; For SPR the His6-tagged PP1 was captured on a Ni-NTA chip; also called Protein Phosphatase 1; PP17-330; source: bacterial expression as previously described, purified (Ni-NTA, SEC)
T6 sequence (P62136 7-330): as above

Binder	IC50 of PP1 inhibition (dephosphorylation of the H3pT3 peptide, released Pi) [2]	Kd [7]	Kd [11]	other results
SLTIKLRKRKPEKKVEWTSDTVDNEHMGRRSSKCCCIYEKPR (domain or fragment) [I327-68 (I3 PP1 interaction domain)]				Supplementary Figure 5A: IC50 of PP1 inhibition by I3 27-68 (dephosphorylation of the H3pT3 peptide) in the presence of 1.3 mM DTT; I3 exchanged into buffer without 0.5 mM TCEP [1]: 70 nM
B1	75 nM	9.3 ± 1.1 nM		IC50 of PP1 C273S inhibition (dephosphorylation of the H3pT3 peptide, released Pi; 1.33 mM DTT) [3]: 85 nM; Kd [4]: 16.1 ± 1.1 nM; Kd [5]: 17 ± 0.8 nM; Kd [6]: 9 ± 0.6 nM; Kd [8]: 16.1 ± 0.7 nM; Kd [9]: 5.9 ± 0.6 nM; Kd [10]: 6.6 ± 1.7 nM
B2			45.5 nM and 63.4 nM and 53.1 nM	
B3	153 nM	21.2 ± 0.6 nM		
B4			20.7 nM and 21.6 nM	
B5			88 nM and 81.1 nM and 88.3 nM and 89.6 nM	
B6	158 nM	18.8 ± 0.9 nM		
B7			20.1 nM and 18.7 nM and 17.5 nM	
B8			19 nM and 13.1 nM and 14.3 nM and 15.5 nM	
B9	380 nM	412 ± 6 nM		
B10	243 nM	21.7 ± 3.1 nM		
B11	349 nM	86.8 ± 3.8 nM		Kd [12]: 86.6 nM
B12			409 nM and 421 nM and 406 nM	koff [11]: 0.0719 s⁻¹ and 0.0774 s⁻¹ and 0.0728 s⁻¹ and 0.074 s⁻¹; kon [11]: 176000 M⁻¹ s⁻¹ and 184000 M⁻¹ s⁻¹ and 179000 M⁻¹ s⁻¹ and 180000 M⁻¹ s⁻¹
B13	179 nM	54 ± 9 nM		
B14			16.1 nM and 17.4 nM and 28.3 nM	
B15	171 nM	20.6 ± 5.1 nM		
B16		15.6 ± 2.4 nM		
B17				koff [13]: 0.0766 s⁻¹; kon [13]: 210000 M⁻¹ s⁻¹
B18	422 nM	376 ± 47 nM		
B19			447 nM and 329 nM and 352 nM	koff [11]: 0.0749 s⁻¹ and 0.0798 s⁻¹ and 0.0752 s⁻¹ and 0.0766 s⁻¹; kon [11]: 168000 M⁻¹ s⁻¹ and 242000 M⁻¹ s⁻¹ and 213000 M⁻¹ s⁻¹ and 208000 M⁻¹ s⁻¹
